The values below come from patent publication US20210147564A1 (published 2021).

For assay [1], the target named is BCMA protein of Cynomolgus macaque (Cynomolgus macaque, UniProt A0A2K5UD97 1-53). Description: Octet off-rate.
Assay [2] concerns the target T1, human BCMA ECD protein (Abcam ab50089) (human, UniProt Q02223 1-54).
T1 chain: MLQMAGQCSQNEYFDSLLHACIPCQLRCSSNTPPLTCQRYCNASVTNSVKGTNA
The assay can be described thus: Octet off-rate.

Where only a bound is given, the exact number is not on record here.

Chain of BCMA protein of Cynomolgus macaque (A0A2K5UD97 entry or part of it): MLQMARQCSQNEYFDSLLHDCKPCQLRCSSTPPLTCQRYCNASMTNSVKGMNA

B1: heavy chain-only anti-BCMA antibody (UniAb) with the heavy chain variable region of SEQ ID NO: 13 (antibody, V domains shown)
VH: QVQLVESGGGLVQPGGSLRLSCAASGFTFSSHAMTWVRQAPGKGLEWVAAISGSGDFTHYADSVKGRFTISRDNSKNTVSLQMNNLRAEDTAVYYCAKDEDGGSLLGYRGQGTLVTVSS
The koff is a measure of how fast the partners let go of each other. As for B1, the results for the off-rate constant (koff) in assay [1] and in assay [2] were 0.00189 s⁻¹ and below 1e-07 s⁻¹, respectively.

B2: heavy chain-only anti-BCMA antibody (UniAb) with the heavy chain variable region of SEQ ID NO: 12 (antibody, V domains shown)
VH: QVQLVESGGGLVQPGGSLRLSCAASGFTFTNHAMSWVRQAPGKGLELVSSISGNGRTTYYADSVKGRFTISRDISKNTLDLQMNSLRAEDTAVYYCAKDGGETLVDSRGQGTLVTVSS
Consider B2, for which the koff was 0.000941 s⁻¹ in assay [1] and below 1e-07 s⁻¹ in assay [2].

B3: heavy chain-only anti-BCMA antibody (UniAb) with the heavy chain variable region of SEQ ID NO: 15 (antibody, V domains shown)
VH: EVQLLESGGGLVQPGGSLRLSCAASGFTFSSYAMSWVRQAPGKGLEWVSSISGSGDYIYYADSVKGRFTISRDISKNTLYLQMNSLRAEDTAVYYCAKEGTGANSSLADYRGQGTLVTVSS
Regarding B3, the dissociation rate constant (koff) in assay [1] was 0.000322 s⁻¹; in assay [2] it was below 1e-07 s⁻¹.
